According to article PMC2805019 (ACS chemical biology, 2008):

Experiments:
[1] = biological target: apoptosis inducing factor (AIF) (Homo sapiens, UniProt O95831); assay: ITC; format: binding
[2] = biological target: T1, AIF (57 kDa form, AIFΔ1-121) (human, UniProt O95831 122-613); assay: competition
[3] = biological target: T1, AIF (57 kDa form, AIFΔ1-121); assay: photonic crystal biosensor
[4] = biological target: T2, MazEF toxin-antitoxin complex (UniProt P0AE72;P0AE70 1-82;1-111); assay: photonic crystal biosensor
T2 sequence (P0AE72 whole entry, chain 1 of 2): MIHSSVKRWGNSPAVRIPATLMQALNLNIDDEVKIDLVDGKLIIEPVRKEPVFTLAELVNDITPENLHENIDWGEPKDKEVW
T2 sequence (P0AE70 whole entry, chain 2 of 2): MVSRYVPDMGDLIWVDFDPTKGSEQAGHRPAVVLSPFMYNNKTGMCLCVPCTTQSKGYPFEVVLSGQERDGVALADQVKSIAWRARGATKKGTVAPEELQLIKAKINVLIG

[5] = biological target: T2, MazEF toxin-antitoxin complex; assay: photonic crystal biosensor; remark: listed apart in the source
[6] = biological target: T2, MazEF toxin-antitoxin complex; assay: competition

T1 sequence (O95831 122-613, stated change not applied): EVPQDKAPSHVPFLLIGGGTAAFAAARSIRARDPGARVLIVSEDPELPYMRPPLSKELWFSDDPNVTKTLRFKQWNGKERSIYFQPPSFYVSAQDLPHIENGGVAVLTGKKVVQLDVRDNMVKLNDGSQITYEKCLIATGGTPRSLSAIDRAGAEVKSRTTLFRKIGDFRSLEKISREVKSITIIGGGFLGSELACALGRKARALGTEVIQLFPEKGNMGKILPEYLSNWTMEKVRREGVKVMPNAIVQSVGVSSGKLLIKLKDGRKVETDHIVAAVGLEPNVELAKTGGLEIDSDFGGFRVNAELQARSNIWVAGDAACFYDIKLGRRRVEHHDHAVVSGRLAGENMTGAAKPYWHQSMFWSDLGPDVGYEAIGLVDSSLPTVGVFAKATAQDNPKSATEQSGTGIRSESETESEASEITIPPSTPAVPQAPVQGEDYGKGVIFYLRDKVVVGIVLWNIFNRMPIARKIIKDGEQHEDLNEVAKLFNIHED
Chain of apoptosis inducing factor (AIF) (O95831 122-613): as the sequence (O95831 122-613, stated change not applied) above

For `O=C(O)C1=CC(=C(c2ccc(O)c(C(=O)O)c2)c2ccc(O)c(C(=O)O)c2)C=CC1=O` [ATA, aurin tricarboxylic acid], the Kd [1] was 19 ± 5 µM.

B1: randomized 30 bp dsDNA, nonbiotinylated (dsDNA)
DNA 1: CCGGTACGATACGACGATCGATAGTAGGCC
DNA 2: GGCCTACTATCGATCGTCGTATCGTACCGG
B1: binds [2].

B2: randomized 30 bp dsDNA, biotinylated (dsDNA)
DNA 1: CCGGTACGATACGACGATCGATAGTAGGCC
DNA 2: GGCCTACTATCGATCGTCGTATCGTACCGG
B2: binds [3].

B3: alternating GC control DNA, biotinylated (dsDNA)
DNA 1: GCGCGCGCGCGCGCGCGCGCGCGCGCGCGCGCGCGCGCGCGCGCGCGCGC
DNA 2: CGCGCGCGCGCGCGCGCGCGCGCGCGCGCGCGCGCGCGCGCGCGCGCGCG
B3: no binding [4].

B4: MazEF promoter DNA, biotinylated (dsDNA)
DNA 1: GCTCGTATCTACAATGTAGATTGATATATACTGTATCTACATATGATAGC
DNA 2: GCTATCATATGTAGATACAGTATATATCAATCTACATTGTAGATACGAGC
B4: binds [5].

B5: MazEF promoter DNA, nonbiotinylated (dsDNA)
DNA 1: GCTCGTATCTACAATGTAGATTGATATATACTGTATCTACATATGATAGC
DNA 2: GCTATCATATGTAGATACAGTATATATCAATCTACATTGTAGATACGAGC
B5: binds [6].
